Experimental data: patent US20240317847A1 (Bayer, published 2024)

How the values were obtained:
[1] = target: T1, human IL-11 (Invigate, e.g., lot #C121021-19) (human, UniProt P20809 22-199); test: SPR, Biacore T200, 25 C; antibody captured via anti-mouse Fc, IL-11 as analyte, 1:1 Langmuir fit
T1 construct: Bought protein; also called hIL-11; hIL11
T1 sequence: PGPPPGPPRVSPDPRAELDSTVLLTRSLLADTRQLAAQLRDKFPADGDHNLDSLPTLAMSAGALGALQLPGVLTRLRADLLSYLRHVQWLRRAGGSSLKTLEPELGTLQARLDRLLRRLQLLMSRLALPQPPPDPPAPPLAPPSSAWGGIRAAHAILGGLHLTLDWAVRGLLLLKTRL
Experimental: (§1) Antibodies were captured via anti-mouse Fc IgGs (“Mouse antibody capture kit, Order No. BR100383, Cytiva) covalently amine coupled to a Series S CM5 sensor chip (Cytiva). The amine coupling was carried out according to the manufacturer's instructions using 1-ethyl-3-(3-dimethylaminopropyl) carbodiimide hydrochloride (EDC), N-hydroxysuccinimide (NHS) and ethanolamine HCl, pH 8.5 (“Amine Coupling Kit” BR-1000-50, Cytiva.). Human IL-11 (Invigate, e.g., lot #C121021-19), and murine IL-11 (Invigate, e.g., lot #C210819-09) were used as analytes. […] Based on that experiment an IL-11 concentration range was chosen to optimally determine kinetics and affinity of anti-IL-11 antibodies in multicycle kinetics mode. The sensor surface was regenerated with glycine pH 1.7 after each antigen injection. Obtained sensorgrams were double referenced (subtraction of reference flow cell signal and buffer injection) and were fitted to a 1:1 Langmuir binding model to derive kinetic data using the Biacore T200 Evaluation software or the Biacore Insight software.

[2] = target: T2, murine IL-11 (Invigate, e.g., lot #C210819-09) (mouse, UniProt P47873 22-199); test: as above
T2 construct: Bought protein; biotinylated where captured on streptavidin plates; also called mIL-11; mIL11
T2 sequence: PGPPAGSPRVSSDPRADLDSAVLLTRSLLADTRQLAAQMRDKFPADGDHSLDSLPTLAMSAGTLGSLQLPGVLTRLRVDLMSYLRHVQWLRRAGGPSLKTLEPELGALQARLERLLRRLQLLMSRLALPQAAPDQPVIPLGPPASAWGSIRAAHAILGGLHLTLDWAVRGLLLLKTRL
Experimental: as §1

[3] = target: T1, human IL-11 (Invigate, e.g., lot …); test: Tri-complex ELISA: antibody titrated against 8 nM human IL-11, 2 nM human gp130-human-Fc and 2 nM murine IL11RA-murine-Fc
Experimental: (§2) In the Tri-complex ELISA format IL-11 antibodies are tested for their ability to inhibit the formation of a complex consisting of murine or human gp130-Fc fusion protein, with murine or human IL-11, and a murine IL11RA-Fc fusion protein. The assay format was adapted according to FIG. 18 (a, b), depending on whether murine or human IL-11 IgG antibodies were tested.
(§3) The assay was performed using High Binding microtiter plates (Greiner, #781077). In a first step, 25 μl of goat anti human IgG (Sigma, #12136), diluted 1:1000 in coating buffer (Candor, #121125) was coated on the plate at 4° C. overnight. Next day, the plate was washed one time with 50 μl PBST and then blocked with 50 μl SmartBlock (Candor, #113125) for one hour at room temperature (RT). […] After three additional washes of the coated and blocked microtiter plate with PBS-T, 25 μl of each mixture were added and the assay plate was incubated for one hour at room temperature. After three additional washes, anti-mouse-gp130 biotinylated antibody (R&D, #BAF468) or anti-human gp130 biotinylated antibody (R&D, #BAF228), both 1:1000 in 10% SmartBlock PBS-T, was added and incubated for 1 hour at RT. After three additional washes, a Streptavidin-Peroxidase conjugate (Sigma, #S5512) 1:1000 in SmartBlock PBS-T was added and incubated for one hour at room temperature. After a final three washes, AmplexRed (Fisher Scientific, A12222), 1/1000 in PBS, 0,003% H₂O₂, was added as substrate and incubated for 15 min at RT in the dark. Then, the fluorescence was measured with a plate reader at 535/595 nm. Signals from dose responses were used to calculate IC50 values using GraphPad Prism software.

[4] = target: T3, human IL2Ra (Peprotech, Germany, #200-02RC) (human, UniProt P01589 22-240); test: direct binding ELISA on coated IL2Ra
T3 construct: Coated on the ELISA plate; also called hIL2Ra; IL-2 receptor alpha
T3 sequence (looked up): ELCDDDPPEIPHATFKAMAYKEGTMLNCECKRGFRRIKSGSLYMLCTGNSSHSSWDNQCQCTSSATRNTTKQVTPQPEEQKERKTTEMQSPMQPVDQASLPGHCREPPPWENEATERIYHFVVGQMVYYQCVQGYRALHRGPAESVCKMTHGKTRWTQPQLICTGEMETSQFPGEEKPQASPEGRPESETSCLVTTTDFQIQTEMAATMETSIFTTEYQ

[5] = target: T2, murine IL-11 (Invigate, e.g., lot …); test: Tri-complex ELISA: antibody titrated against 8 nM murine IL-11, 2 nM murine gp130-human-Fc and 2 nM murine IL11RA-murine-Fc
Experimental: as §2, §3

B1: TPP-19528 (antibody, mouse IgG1, V domains shown)
VH: EVQLLESGGGLVQPGGSLRLSCAASGFTFSIYAMSWVRQAPGKGLEWVSSISDTGDRTYYADSVKGRFTISRDNSKNTLYLQMNSLRAEDTAVYYCARSNWGSLDYWGQGTLVTVSS
VL: QSVLTQPPSASGTPGQRVTISCSGSSSNIGSNYVYWYQQLPGTAPKLLIYYDDLLPSGVPDRFSGSKSGTSASLAISGLRSEDEADYYCAAWDDSLSGRVFGGGTKLTVLG
notes: mIgG1, Lambda
- Kd [1]: 11 nM
- Kd [2]: 9 nM
- Efficacy (%) [3]: 57%
- IC50 [3]: 20 nM
- binding result [4]: no binding (tested: 3.3E-7 [M] antibody)
- Efficacy (%) [5]: 76.6%
- IC50 [5]: 14 nM
